For assay [1], the target named is T1, myc-tagged human EphB4 on transfected CHO cells (human, UniProt P54760 16-987).
T1 construct: whole, on cells; also called CHO-EphB4; CHO-hEphB4; not shown: myc tag
T1 sequence (looked up): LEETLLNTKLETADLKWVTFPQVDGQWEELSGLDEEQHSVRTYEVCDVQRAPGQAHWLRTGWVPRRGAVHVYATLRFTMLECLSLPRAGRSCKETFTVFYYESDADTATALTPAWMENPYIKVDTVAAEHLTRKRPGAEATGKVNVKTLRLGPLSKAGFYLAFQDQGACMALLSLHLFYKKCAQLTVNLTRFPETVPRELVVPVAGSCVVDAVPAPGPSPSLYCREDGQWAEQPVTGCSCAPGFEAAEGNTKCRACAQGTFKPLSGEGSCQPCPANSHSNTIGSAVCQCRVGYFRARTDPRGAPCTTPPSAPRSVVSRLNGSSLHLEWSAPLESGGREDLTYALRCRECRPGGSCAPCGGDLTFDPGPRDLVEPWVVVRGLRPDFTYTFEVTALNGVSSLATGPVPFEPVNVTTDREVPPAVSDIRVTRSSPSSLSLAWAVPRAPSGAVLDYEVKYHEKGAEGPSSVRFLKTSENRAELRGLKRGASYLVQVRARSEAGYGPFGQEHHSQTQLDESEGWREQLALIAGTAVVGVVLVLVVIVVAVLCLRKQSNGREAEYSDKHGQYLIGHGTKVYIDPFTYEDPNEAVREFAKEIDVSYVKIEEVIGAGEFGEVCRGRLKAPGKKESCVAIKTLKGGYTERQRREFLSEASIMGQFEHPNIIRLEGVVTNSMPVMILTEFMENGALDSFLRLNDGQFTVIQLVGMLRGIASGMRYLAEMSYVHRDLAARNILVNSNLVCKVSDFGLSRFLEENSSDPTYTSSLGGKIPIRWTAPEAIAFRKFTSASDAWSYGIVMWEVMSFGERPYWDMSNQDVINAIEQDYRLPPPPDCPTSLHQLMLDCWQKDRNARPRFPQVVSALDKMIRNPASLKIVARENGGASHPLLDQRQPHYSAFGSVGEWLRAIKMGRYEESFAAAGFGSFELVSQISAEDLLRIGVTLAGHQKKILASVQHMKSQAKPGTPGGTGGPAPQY
As to the kind of experiment: FACS competition on CHO-EphB4 cells, competitor murine ephrin-B2. Here is the method:
(§1) C50 values (i.e. IgG4-Pro inhibition of ligand binding) were determined in FACS. […] Receptor-bound ephrin-B2 was detected via biotinylated anti-mouse ephrin-B2 antibody (R&D Systems) and streptavidin-PE. The IC50 values of the IgGs, determined in two independent experiments, are given in Table 11 and are compared to the IC50 values of the corresponding Fab. […] Again, as already seen for the Fab, the IC50 values of the MOR07310 pool were slightly better than those of the MOR03641 pool.

Assay [2] deals with T1, myc-tagged human EphB4 on transfected …. As to the kind of experiment: FACS, IgG4-Pro inhibition of murine ephrin-B2 binding to CHO-EphB4 cells. As to the method: as §1
(In general: A flow cytometer gives signals particle by particle.)

For assay [3] the target is unchanged. Description: FACS titration of IgG4-Pro on CHO-EphB4 cells. As to the method:
For the determination of EC50 values, the 12 final IgGs were analyzed on CHO-EphB4 cells in FACS. The EC50 values of the IgGs, determined in two independent experiments, are given in Table 11 and are compared to the EC50 values of the corresponding Fab. […] Again, as already seen for the Fab, the EC50 values of the MOR07310 pool were slightly better than those of the MOR03641 pool.

The target in assay [4] is T2, recombinant mouse EphB3-Fc fusion protein (mouse, UniProt P54754 30-537, limits assumed).
T2 construct: also called mEphB3; not shown: Fc part, not described
T2 sequence (looked up): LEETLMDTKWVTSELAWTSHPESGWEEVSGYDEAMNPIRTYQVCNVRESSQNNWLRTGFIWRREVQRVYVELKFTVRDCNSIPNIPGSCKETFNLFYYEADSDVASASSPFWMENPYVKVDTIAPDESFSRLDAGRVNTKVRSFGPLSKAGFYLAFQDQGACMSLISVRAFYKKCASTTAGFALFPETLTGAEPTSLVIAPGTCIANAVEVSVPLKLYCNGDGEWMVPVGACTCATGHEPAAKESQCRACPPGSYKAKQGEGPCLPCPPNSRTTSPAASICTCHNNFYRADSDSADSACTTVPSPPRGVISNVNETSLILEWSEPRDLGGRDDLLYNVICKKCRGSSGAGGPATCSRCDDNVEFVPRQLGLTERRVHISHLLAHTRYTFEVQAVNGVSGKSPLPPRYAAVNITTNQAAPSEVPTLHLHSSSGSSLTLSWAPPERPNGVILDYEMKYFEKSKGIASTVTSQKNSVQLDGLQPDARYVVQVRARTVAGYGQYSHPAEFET
Description: ELISA: mEphrinB2-Fc (25 ng/ml) on coated mEphB3-Fc, with or without 100 µg/mL anti-EphB4 Fab. Here is the method:
Specificity for EphB4 in ELISA: Wells of a 96-well maxisorp-plate were coated overnight with 100 μL recombinant human EphB4 (hEphB4)-, recombinant mouse EphB3 (mEphB3)- or recombinant mouse EphA4 (mEphA4)-Fc fusion protein at a final concentration of 2.5 μg/mL in PBS. Anti-EphB4 Fab fragments (purified, MH-tagged) were added (100 μL/well, 100 μg/mL final concentration in chemiblock) to respective wells and incubated for 1 h at RT. Then 100 μl mEphrinB2-Fc fusion protein either spiked with the respective anti-EphB4 Fab or with PBS was added (25 ng/ml mEphrinB2+/−100 μg/ml Fab diluted in chemiblock) and incubated for max. 20 min at RT. The amount of bound EphrinB2 was detected using biotinylated goat anti-EphrinB2 antibody (0.05 μg/ml final concentration diluted in chemiblock, 1 h at RT), AP-conjugated streptavidin and AttoPhos substrate. Fluorescence was measured (RFU) at 535 nm (430 nm excitation).
On the technique in general: ELISA stands for enzyme-linked immunosorbent assay.

Assay [5] has as its target T1, myc-tagged human EphB4 on transfected …. As to the kind of experiment: FACS, IgG4-Pro inhibition of murine ephrin-B2 binding to CHO-EphB4 cells; n = 1. As to the method:
as §1

What is called IC50 is the point on the concentration scale where inhibition reaches its midpoint. A higher IC50 goes with a need for much substance. A word on the EC50: it is the concentration at which the effect is half-maximal. A lower EC50 goes with a more potent agent. What is called EC50 (read off the curve) is the concentration that produces a half-maximal response. The low end stands for an effect from little substance, the high end for a need for much substance.

B1: MOR07953 IgG4-Pro (antibody, V domains shown)
VH: QVELVESGGGLVQPGGSLRLSCAASGFTFNNAWMSWVRQAPGKGLEWVSAINAKGQFTSYADSVKGRFTISRDNSKNTLYLQMNSLRAEDTAVYYCARKGMSFYNNKYAKSMFDLWGQGTLVTVSS
VL: DIELTQPPSVSVAPGQTARISCSGDNLGKKYVHWYQQKPGQAPVLVIYYDSKRPSGIPERFSGSNSGNTATLTISGTQAEDEADYYCQTWTLSHMGNVFGGGTKLTVLG
notes: Fab MOR07953 converted into human IgG4-Pro format
On to B1, for which the “IC50 (read off the curve)” value in assay [1] was around 0.3 nM. The same molecule gave an IC50 in assay [2] of 0.23 nM. In assay [3], the EC50 was 0.17 nM and the “EC50 (read off the curve)” value is around 0.1 nM.

B2: MOR07724 IgG4-Pro (antibody, V domains shown)
VH: QVQLVESGGGLVQPGGSLRLSCAASGFTFNNAWMSWVRQAPGKGLEWVSGISADGVHKFYADSVKGRFTISRDNSKNTLYLQMNSLRAEDTAVYYCARKGMSFYNNKYAKSMFDLWGQGTLVTVSS
VL: DIELTQPPSVSVAPGQTARISCSGDNLGKKYVHWYQQKPGQAPVLVIYYDSKRPSGIPERFSGSNSGNTATLTISGTQAEDEADYYCSAWTTTMMHIVFGGGTKLTVLG
notes: Fab MOR07724 converted into human IgG4-Pro format
B2: the “IC50 (read off the curve)” value in assay [1] was around 0.1 nM. The same molecule registered an IC50 in assay [2] of 0.1 nM. Moreover, in assay [3], a half-maximal response (EC50) required 0.18 nM.

B3: MOR07721 IgG4-Pro (antibody, V domains shown)
VH: QVQLVESGGGLVQPGGSLRLSCAASGFTFNNAWMSWVRQAPGKGLEWVSTIEAKMPNGATFYAAPVKGRFTISRDNSKNTLYLQMNSLRAEDTAVYYCARKGMSFYNNKYAKSMFDLWGQGTLVTVSS
VL: DIELTQPPSVSVAPGQTARISCSGDNLGKKYVHWYQQKPGQAPVLVIYYDSKRPSGIPERFSGSNSGNTATLTISGTQAEDEADYYCSAWTTTMMHIVFGGGTKLTVLG
notes: Fab MOR07721 converted into human IgG4-Pro format
Regarding B3, the “IC50 (read off the curve)” value in assay [1] is around 0.1 nM. Further, in assay [2], the IC50 was determined as 0.16 nM and the “fold improvement of IC50 compared to the corresponding Fab” value is 6 fold. Further, the EC50 in assay [3] was 0.12 nM.

B4: mEphrinB2-Fc fusion protein (Fc fusion, mouse, UniProt P52800 27-227, looked up)
chain: ISRSIVLEPIYWNSSNSKFLPGQGLVLYPQIGDKLDIICPKVDSKTVGQYEYYKVYMVDKDQADRCTIKKENTPLLNCARPDQDVKFTIKFQEFSPNLWGLEFQKNKDYYIISTSNGSLEGLDNQEGGVCQTRAMKILMKVGQDASSAGSARNHGPTRRPELEAGTNGRSSTTSPFVKPNPGSSTDGNSAGHSGNNLLGSE
notes: not shown: Fc part, not described
On to B4, for which the binding result in assay [4] was “binds”.

B5: MOR07728 IgG4-Pro (antibody, V domains shown)
VH: QVELVQSGAEVKKPGSSVKVSCKASGGTFSTYAISWVRQAPGQGLEWMGRIIPIFGTANYAQKFQGRVTITADESTSTAYMELSSLRSEDTAVYYCARSSYTILTTYYNYNAMDNWGQGTLVTVSS
VL: DIQMTQSPSSLSASVGDRVTITCRASQNINNFLNWYQQKPGKAPKLLIYGSSILQSGVPSRFSGSGSGTDFTLTISSLQPEDFATYYCQQNDFYSPSTFGQGTKVEIKR
notes: Fab MOR07728 converted into human IgG4-Pro format
As to B5, in assay [1], the “IC50 (read off the curve)” value is around 3 nM. In addition, in assay [3], the EC50 is 1.58 nM and the “EC50 (read off the curve)” value is around 2 nM. For the same molecule, the concentration for half-maximal inhibition (IC50) in assay [5] came out at 3.26 nM.

B6: MOR07955 IgG4-Pro (antibody, V domains shown)
VH: QVELVQSGAEVKKPGSSVKVSCKASGGTFSTYAISWVRQAPGQGLEWMGKIIPIFGDADYAQKFQGRVTITADESTSTAYMELSSLRSEDTAVYYCARSSYTILTTYYNYNAMDNWGQGTLVTVSS
VL: DIQMTQSPSSLSASVGDRVTITCRASQNINNFLNWYQQKPGKAPKLLIYGSSILQSGVPSRFSGSGSGTDFTLTISSLQPEDFATYYCSQDHFYPPSGTFGQGTKVEIKR
notes: Fab MOR07955 converted into human IgG4-Pro format
Consider B6, for which, in assay [2], the IC50 came out at 0.31 nM. In assay [3], this molecule had an EC50 of 0.51 nM.

B7: MOR07957 IgG4-Pro (antibody, V domains shown)
VH: QVELVQSGAEVKKPGSSVKVSCKASGGTFSTYAISWVRQAPGQGLEWMGQIIPIFGDADYAQKFQGRVTITADESTSTAYMELSSLRSEDTAVYYCARSSYTILTTYYNYNAMDNWGQGTLVTVSS
VL: DIQMTQSPSSLSASVGDRVTITCRASQNINNFLNWYQQKPGKAPKLLIYGSSILQSGVPSRFSGSGSGTDFTLTISSLQPEDFATYYCQQNDFYSPSTFGQGTKVEIKR
notes: Fab MOR07957 converted into human IgG4-Pro format
B7 showed an IC50 in assay [2] of 0.79 nM. In assay [3], this molecule gave an EC50 of 0.36 nM.

B8: MOR07956 IgG4-Pro (antibody, V domains shown)
VH: QVELVQSGAEVKKPGSSVKVSCKASGGTFSTYAISWVRQAPGQGLEWMGKIIPIFGDADYAQKFQGRVTITADESTSTAYMELSSLRSEDTAVYYCARSSYTILTTYYNYNAMDNWGQGTLVTVSS
VL: DIQMTQSPSSLSASVGDRVTITCRASQNINNFLNWYQQKPGKAPKLLIYGSSILQSGVPSRFSGSGSGTDFTLTISSLQPEDFATYYCQQYDFYLSGTFGQGTKVEIKR
notes: Fab MOR07956 converted into human IgG4-Pro format
B8 gave an EC50 in assay [3] of 0.34 nM. Further, the IC50 in assay [5] is 0.43 nM.
